Laboratory results taken from the nanobody polyreactivity screen of Harvey et al. (2022).

Experiment: yeast display, Sf9 membrane polyspecificity reagent, FACS + sequencing; frameworks hold sequencing errors
Procedure, shortened: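 Sorting gates, low and high (top ~1%), were placed on anti-HA fluorescence to track expression and on streptavidin fluorescence to track reagent binding. A clone's polyreactivity label is taken from the gate it came out of. The reagent was 10% biotinylated, detergent-solubilized Sf9 membrane, applied for 1 hour at 4 °C to galactose-induced yeast display cells.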

In the case of “QVQLVESGGGLVQAGGSLRLSCAASGRTFAWYTMGWYRQAPGKESELVAAISGSGGSTYYADSVKGRFTISRDNANNTVYLQMNSLKPDDTAVYYCARRVDSYYGHTRYYYWGQGTQVTVSS”, the “polyreactivity (PSR sort gate)” value was “high polyreactivity”.

With “QVQLVESGGGLVQAGGSLRLSCAASGRTFSYYAMGWYRQAPGKERELVAAITSGGGRTYYADSVKGRFTISRDNAKNTVYLQMNSLKPEDTAVYYCNKAYVSRYDYWGQGTQVTVSS” the “polyreactivity (PSR sort gate)” value was “high polyreactivity”.

With “QVQLEESGGGVVQAGGSLRISCAASGIIFYRYTMGWYRQAPGKERELVAAIASRGGSTYYADSVKGRFTISRDNAKNTVYLQMNSLKPEDTAVYYCAAGARYGKVRYGYWGQGTQVTVSS” the “polyreactivity (PSR sort gate)” value was “high polyreactivity”.

For “QVQLVESGGGLVQAGGSLRISCAASGFIFEQYAMGWYRQAPGKERELVARISWRGGSTYYADSVKGRFTISRDNAKNTVYLQMNSLKPEDTAVYYCAADVYTRFWRVYRFDYWGQGTQVTVSS”, the “polyreactivity (PSR sort gate)” value was “low polyreactivity”.

For “QVQLVESGGGLVQAGGSLRLSCAASGNILRGYAMGWYRQAPGKERELVAAIDTRGGRTNYADSVKGRFTISRDNAKNTVYLQMNSLKPEDTAVYYCNALGYYSFGHEYWGQGTQVTVSS”, the “polyreactivity (PSR sort gate)” value was “low polyreactivity”.

With “QVQLGESGGGLVQAGGSLRLICAASGFIVTTYVMGWYRQAPGKERELVAVISRSGGRTYYADSVKGRFTISRDNAKNTVYLQMNSLKPEDTAVYYCNVDIPVLSHIEYYYWGQGTQVTVSS” the “polyreactivity (PSR sort gate)” value was “low polyreactivity”.

In the case of “QVQVVESGGGLVQAGGSLRLSCAASGRIFNYNAMGWYRQAPGKERELVAAITRSGGSTYYADSVKGRFTISRDNAKNTVFLQMNSLKPEDTAVYYCNKRYIPWAYDYWGQGTQVTVSS”, the “polyreactivity (PSR sort gate)” value was “high polyreactivity”.

In the case of “QVQLLESGGGLVQAGGSLRLSCAASGRTFRINARGWYRQAPGKEREFVAAINYRGGSTYADSVKGRFTISRDNAKNTVYVQMNSLKPEDPAVYYCAAYATLWYYTGVHRGGFENWGQGSQVTVSS”, the “polyreactivity (PSR sort gate)” value was “high polyreactivity”.

For “QVQLVESGGGLVQAGGSLRLSCAASGSTFFDYAMGWYRQAPGKERELVAAISSGGSTKYADSVKGRFTISRDNAKNTVYLQMNSLKPEDTAVYYCAATRWNGRRGYGYWGQGTQVTVSS”, the “polyreactivity (PSR sort gate)” value was “high polyreactivity”.

For “QVQLVESGGGLVQAGGSLRLSCAASGSIGYMGWYRQAPGKERELVAFITSSGGGTYYADSVKGRFTISRDNAKNTVYLQMNSLKPEDTAVYYCATKSSAGYDYWGQGTQVTVSS”, the “polyreactivity (PSR sort gate)” value was “low polyreactivity”.

For “QVQLVESGGGLVQAGGSLRLSCAASGSTFNQYAMGWYRQAPGKEREFVATITWSGGRTYYADSVKGRFTISRDNAKNTVYLQMISLKPEDTAVYYCAAQPDYRPSYGYGYWGQGTQVTVSS”, the “polyreactivity (PSR sort gate)” value was “low polyreactivity”.

For “QVQRVESGGGLVQAGGSLRLSCAASGRIFYPNAMGWYRQAPGTEREWVAGITRGGSTNYADSVKGRFTISRDNAKNTVYLQMNSLKPDDSAVDYCAKAIPAKIYSEAGSDYWGQGTQVTVSS”, the “polyreactivity (PSR sort gate)” value was “low polyreactivity”.

In the case of “QVQLVESGGGLVQAGGSLPLSCAASGRTFRSNAMGWYRQAPGKERELVAAISWSGGSTYYADSVKGRFTISRDNAKTSVYFQLNSLKPEDTAVYYCAAYYYTRFEWGQGTQVTVSS”, the “polyreactivity (PSR sort gate)” value was “high polyreactivity”.

With “QVQLVESGGGLVQAGRSLRLSCAASGYTIRYYAMGWYRQAPGKERELVAAITNRGGTYYADSVKGRFTISRDNAKNTVYLQLNSLKPEDNAVYYCAARYYWIDFKFGGPRDYWGQGTQVTVSS” the “polyreactivity (PSR sort gate)” value was “high polyreactivity”.

In the case of “QVQLVESGRGLVQAGGSLRLSCAASGRTFRFNAMGWYRQAPGKEREFVAAITSGGGTYYADSVKGRFTISRDNAKNTVYLQMNSLKPEDTAVYYCAAPRQYYLMDYGGQGTQVTVSS”, the “polyreactivity (PSR sort gate)” value was “low polyreactivity”.

In the case of “QVQLVESGGGLVQAGGSLRLSCAASGGIFPGNAMGWYRPAPGKERELVATISYSGGSTYYADSVKGRFTISRDNAKNTVYLQMNSLKPEDTAVYYCAARGYKPTRSRRTEYGYWGQGTQVTVSS”, the “polyreactivity (PSR sort gate)” value was “high polyreactivity”.

For “QVQLVESGGGLVHAGGTIEPYAMGWYRQAPGKERELVAPIRTSGGGTYYADSVKGRFTISRDNAKNTVYLQMYSLKPEDTAVYYCAAKSGPTLQRYYSYIFDYWGQGTQVTVSS”, the “polyreactivity (PSR sort gate)” value was “low polyreactivity”.

With “QDQHVESGGGLVQARGSLRLSCAASGRIFANKAMGRYRQAPGKERELVAAISRSGVSTYYADSVKGRFTISRDNAKNTVYLQMNSLKPEDSAVYYCAARWRSGFTSGDDWGQGTQVTVSA” the “polyreactivity (PSR sort gate)” value was “low polyreactivity”.

In the case of “QVQIVETGGGLVQAGGSLRLSCAASGSIFSAYVMGWYRQAPGKERELVAAITRTGGRTYYADSVKGRFTISRDNAKNTVYLQMNSLKPEDTAVYYCAKEAITRTFPYRHEYWGQGTQVTVSS”, the “polyreactivity (PSR sort gate)” value was “low polyreactivity”.

For “QVQLVESGGGLVQAGGSLRLSCAASGGIFWRYAMGWYRQAPGKERELVAAISSRGGSTYYADSVKGRFTISRDNAKNTVYLQMNSLKPEDTAVYYCAAAFLSRVQGYDSWGQGTQVTVSS”, the “polyreactivity (PSR sort gate)” value was “high polyreactivity”.

In the case of “QVQLEESGGGLVQAGGSLRLSCAASGRTFGRYDMGWYRQAPGKEREFVAAISTRGSRTYYADSVKGRFTISRDNAKNTVYLQMNSLKAEDTAVYYCAAEYLPRPYSWIYYYWGQGTQVTVSS”, the “polyreactivity (PSR sort gate)” value was “high polyreactivity”.

In the case of “QVQLVESGGGLVQAGGSLRLSCAASGRTFDKYAMGCYRPAPGTQRELVAAINSSGGSTYYSDSVKGRFTISRDNEKNTVYLQMNSLKPEDTAFYYCAALGIGSYRRYSCYDYWGQGPQVTVSS”, the “polyreactivity (PSR sort gate)” value was “low polyreactivity”.

With “QVQLVESGGGLVQAGGSLRLSCAASGRTFVLYTMGWYRQAPGKERELVAVGSTYYADSVKGRFTISRDNAKNTVYLQMNSLKPEDTAVYYCNKPGNYVWRRSWDFDYWGQGTQVTVSS” the “polyreactivity (PSR sort gate)” value was “high polyreactivity”.

For “QVQLVESGGGLVQAGGSLRLSCAASGSTFYYAMGWYRQAPGKERELVASITFSTGSTYYADSVKGRFTISRDNAKNTVYLQMTSLKPEDTAVYYCATGVDTYSLTVEHDSWGQGTQVTVSS”, the “polyreactivity (PSR sort gate)” value was “low polyreactivity”.

With “QVQLVESGGGLVQAGGSLRLSCAASGSIFYGNAMGWYRPAPGKERELVAGITSGVGTNYADSVKGRFTISRDNAKNTVYLQMNSLKPEDTAVYYCNARYVYWIKGHDYWGQGTQVTVSS” the “polyreactivity (PSR sort gate)” value was “high polyreactivity”.

With “QGQLVESGGGLVQAGGSLRLSCAASGSTFPTNSMGWYRPAPGNDRELVAAITGGASTYYADSVKGRFTISRDNAKNTVYLQMNSLKPEDTAVYYCAADDSWFYYGYGYWGQGTQVTVSS” the “polyreactivity (PSR sort gate)” value was “low polyreactivity”.

For “QVHLEESGGGLVQAGGSLRLRCAASGFTFGHYTMGWYRQAPGKERELVAAITWRGGTYYADSVKGRFTISRDNAKNTVYLQMNSLKPEDTAVYYCNARFGQTVKGTYGRYYYWGQGTQVTVSS”, the “polyreactivity (PSR sort gate)” value was “high polyreactivity”.

For “QVQLVESGGGLVQAGGRHPVSCAASGRTIAYNAKGLYRQATGKERELVASITSGGSTNYADSVKGRFTISRDYAKNTVYLQMNSLKQEHTADYYFNKDGKYHRVLFEYWGQGTQVTVSS”, the “polyreactivity (PSR sort gate)” value was “low polyreactivity”.

With “QVQLVESGGGLVQAGGSLRLSCAASGSIFVRYDMGWYRQAPGKERELVAAISWNGGRTYYADSVKGRFTISRDNAKNTVYLQMNSLKPEDTAVYYCNAVSKGLGSGLDYWGQGTQVTVSS” the “polyreactivity (PSR sort gate)” value was “high polyreactivity”.

With “QVHLVDSGGGLVQAGGPLRLTCPASGSTYRYTIGWYRQAPGKQRELVAAITGSAGRTYYADSVKGRFTISRDNAKNTVYLQMNSLKPEVTAVYYCNKVRPSKFWDYYYCGQGTQVTVSS” the “polyreactivity (PSR sort gate)” value was “high polyreactivity”.

For “QVQLVDSGVGLVQAGGSLRLSCAASGRTFTTNTKGWYRDATWKERELVAAITWSGASTYYADSVKGRFTISRDNAKNTVYLQMNSLKPEDTAVYYCAAERTPSYRAYDYWGQGTQVTVSS”, the “polyreactivity (PSR sort gate)” value was “low polyreactivity”.

With “QVQLVESGGGLVQAGGSLRLSCAASGFIFYDYDMGWYRQAPGKERELVAAISDGGSTNYADSVKGRFTISRDNAKNTVYLQMNSLKPEDTAVYYCAKDGFVYYDYFQYIEYDYWGQGTQVTVSS” the “polyreactivity (PSR sort gate)” value was “low polyreactivity”.

For “QVQLVESGGGLVQAGGSLRLSCAASGFIFVDYAMGWYRQAPGKERELVAAISSSGSTTYADSVKGRFTISRDNAKNIVYLKMNSLKPEDTAVYYCAAGLPRVLKDATFDYWGQGTQVTVSS”, the “polyreactivity (PSR sort gate)” value was “low polyreactivity”.

With “QVQLVESGGGLVQAGGSLRLSCAASGRTSGVYAMGWYRQAPGKERELVAAITSDSTYYADSVKGRFTISRDNAKNTVYLQMNSLKPEDTAVYYCAADSLARRYDYWGQGTQVTVSS” the “polyreactivity (PSR sort gate)” value was “low polyreactivity”.

For “QVQLVESGGGLVQAGGSLRLSCAASGSIFRRNGMGWYRQAPGKERELVAAITYRGGNTNYADSVKGRFTISRDNAKNTVYFQMNRLKPEDTAVYYCAADTYGWWYAFEYWGQGTQVKVSS”, the “polyreactivity (PSR sort gate)” value was “low polyreactivity”.

In the case of “QVQLVESGGGLVQAGGSLRLSCAASGRTFGYYALGWYRQAPGKERELVAAISSNTDSTYYADSVKGRFTISRDNEKNTVYLQMNSLKPEDTAVYYCAAEAYSYYPGTYEDDYWGQGTQVTVSS”, the “polyreactivity (PSR sort gate)” value was “low polyreactivity”.

For “QVQLVESGGGLVQAGGSLRLSCAASGFTFSSYAMGWYRQAPGKERELVAAITQSGGRTYYADSVKGRFTISRDNAKNTVYLQMNSLKPEDTAVYYCAADVPLWYDYGGQGTQVTVSS”, the “polyreactivity (PSR sort gate)” value was “low polyreactivity”.

With “QVQLVESGGGLVQAGGSLRLSCAASGRTFGPNAMGWYRQAPGKEMELVATITYIGGSTYYADSVKGRFTISRDNAKNTVYLQMNSLKPEDTAVYYCAKRGGSYKEGDSWGQGTQVTVSS” the “polyreactivity (PSR sort gate)” value was “low polyreactivity”.

For “QVQLVESGGGLVQAGGSLRLSCAASVFTLWLNAMGWYRQAPGKERELVAAITTSDDGTYYADSVKGRFTISRDNAKNTVYLQMNSLKPEDTAVYYCAADYYSVLYDYWGQGTQVTVSS”, the “polyreactivity (PSR sort gate)” value was “low polyreactivity”.

With “QVQLVESGGGLVQAGGSLRLSCAASGSTFSYNARGWYRQAPGKERELVAAITSGSSTNYADSVKGRFTISRDNAKNTVYLQMNSLKPEDTAVYYCAADGYQDKYYWLETWVGYWGQGTQVTVSS” the “polyreactivity (PSR sort gate)” value was “low polyreactivity”.

In the case of “QVQLVESGGGLVQAGGSLRLSCAASGSIFDPYAMGWYRQAPGKEREFVAAISWSGGSTYYADSVKGRFTISRDNAKNTVYLQMNSLIPEDTAVYYCAAGTQWYSQVYIYYYWGQGTQVTVSS”, the “polyreactivity (PSR sort gate)” value was “low polyreactivity”.

For “QVQLVESVGGLVQAGGSLRLICAASGSIFSPYAMGWYRQAPGKERELVAAINFNGGTTYYADSVKGRFTISRDNAKNTVDLQMNSLKPEDTAVYYCAADEVPGFGYPPYPWFDYWGQGTQVTVSS”, the “polyreactivity (PSR sort gate)” value was “low polyreactivity”.

In the case of “QVQLVESGGGLVQAGGSLRLSCAASGIYGFYAMGWYRQPPRKQRELVAAISSVTSTYYADSVKGRFTISRDNAKNTVYLQMNSLKPEDTAVYYCNAYLYSGGLSYDYWGQGTQVTVSS”, the “polyreactivity (PSR sort gate)” value was “low polyreactivity”.
